Assay results reported in paper PMC3714855.
Where “and” joins values, the source holds several entries; their conditions need not be identical. Equal entries are not always repeated. Blank lines part the entries; values can stand above or below the substance they belong to.

Experiments:
[1] = molecular target: GluA2(Q)(V795W) with a C-terminal GFP tag (rat); test: SEC
[2] = molecular target: wild-type GluA2(R), untagged (rat); test: native gel or EMSA
[3] = molecular target: GluA2(R)(E813W) (rat); test: native gel or EMSA
[4] = molecular target: GluA1(E809W) with a C-terminal GFP tag (rat); test: SEC
[5] = molecular target: GluA2(R)(G802W) (rat); test: native gel or EMSA
[6] = molecular target: wild-type GluA1 with a C-terminal GFP tag (rat); test: SEC
[7] = molecular target: GluA2(R)(L811W) (rat); test: native gel or EMSA
[8] = molecular target: GluA2(R)(V795W) (rat); test: native gel or EMSA
[9] = molecular target: GluA1(L795W) with a C-terminal GFP tag (rat); test: SEC
[10] = molecular target: GluA2(Q)(G802W) with a C-terminal GFP tag (rat); test: SEC
[11] = molecular target: HA-GluA2(R)-ΔM4 (rat); test: native gel or EMSA
[12] = molecular target: GluA2(Q)(L811W) with a C-terminal GFP tag (rat); test: SEC
[13] = molecular target: GluA2(Q)(A806W) with a C-terminal GFP tag (rat); test: SEC
[14] = molecular target: GluA2(Q)(E813W) with a C-terminal GFP tag (rat); test: SEC
[15] = molecular target: HA-tagged wild-type GluA2(R) (rat); test: native gel or EMSA
[16] = molecular target: wild-type GluA2(Q) with a C-terminal GFP tag (rat); test: SEC
[17] = molecular target: GluA2(R)-ΔM4, untagged (rat); test: native gel or EMSA

stoichiometry N [1]: 2
Substance: GluA2(Q)(V795W) with a C-terminal GFP tag (receptor)

stoichiometry N [2]: 4 and 2
Substance: wild-type GluA2(R), untagged (receptor)

stoichiometry N [3]: 2
Substance: GluA2(R)(E813W) (receptor)

stoichiometry N [4]: 2
Substance: GluA1(E809W) with a C-terminal GFP tag (receptor)

stoichiometry N [5]: 2
Substance: GluA2(R)(G802W) (receptor)

stoichiometry N [6]: 4
Substance: wild-type GluA1 with a C-terminal GFP tag (receptor)

stoichiometry N [7]: 4 and 2
Substance: GluA2(R)(L811W) (receptor)

stoichiometry N [8]: 2
Substance: GluA2(R)(V795W) (receptor)

stoichiometry N [9]: 2
Substance: GluA1(L795W) with a C-terminal GFP tag (receptor)

stoichiometry N [10]: 2
Substance: GluA2(Q)(G802W) with a C-terminal GFP tag (receptor)

stoichiometry N [11]: 2
Substance: HA-GluA2(R)-ΔM4 (domain or fragment)

stoichiometry N [12]: 4
Substance: GluA2(Q)(L811W) with a C-terminal GFP tag (receptor)

stoichiometry N [13]: 2
Substance: GluA2(Q)(A806W) with a C-terminal GFP tag (receptor)

stoichiometry N [14]: 2
Substance: GluA2(Q)(E813W) with a C-terminal GFP tag (receptor)

stoichiometry N [15]: 4 and 2
Substance: HA-tagged wild-type GluA2(R) (receptor)

stoichiometry N [16]: 4
Substance: wild-type GluA2(Q) with a C-terminal GFP tag (receptor)

stoichiometry N [17]: 2
Substance: GluA2(R)-ΔM4, untagged (domain or fragment)
